Assay [1] deals with T1, HER2 (UniProt P04626 23-1255, limits assumed). Put plainly: cell-based or functional assay.
Assay [2] has as its target T1, HER2. In words: flow cytometry on SKBR3 cells (HER2 and Lewis Y on the cells), PE anti-human Fc detection, half maximal staining intensity. Here is the method:
SKBR3 cells are cultured in RPMI1640 containing 10% fetal calf serum an 8 mM glutamine. The cells are harvested by trypsination. A total of 1×10⁵ cells in PBS containing 0.1% BSA are incubated with dilutions of the bispecific molecules or control proteins (anti-Lewis Y antibody IGN311 and anti-HER Fcabs respectively) in the range of 1 mM to 0.1 nM and incubated on ice for 20 min. After removal of excess of bispecific molecules or control proteins cells are incubated for 10 min on ice with phycoerythrin-R-coupled polyclonal anti-human FC antibody (Sigma). Measurements are performed on a FACS analyzer (FACS Calibur).
The half maximal staining intensity (EC50) is reached for molecule no. 1 at around 1 nM and for molecule no. 2 at around 10 nM.
In general terms: Flow cytometry measures light scatter and fluorescence of single cells or particles in a stream.

B1: molecule no. 1 (IGN311/Fcab 10-03-6) (bispecific antibody, human IgG1, kappa)
heavy: EVQLLESGGGLVQPGGSLRLSCAASGFTFSDYYMYWVRQAPEKRLEWVAYISNGGGSSHYVDSVKGRFTISRDNAKNTLYLQMNSLRAEDTALYHCARGMDYGAWFAYWGQGTLVTVSSASTKGPSVFPLAPSSKSTSGGTAALGCLVKDYFPEPVTVSWNSGALTSGVHTFPAVLQSSGLYSLSSVVTVPSSSLGTQTYICNVNHKPSNTKVDKKVEPKSCDKTHTCPPCPAPELLGGPSVFLFPPKPKDTLMISRTPEVTCVVVDVSHEDPEVKFNWYVDGVEVHNAKTKPREEQYNSTYRVVSVLTVLHQDWLNGKEYKCKVSNKALPAPIEKTISKAKGQPREPQVYTLPPSRDEYLHGDVSLTCLVKGFYPSDIAVEWESNGQPENNYKTTPPVLDSDGSFFLYSKLTVARYSPRMLRWAHGNVFSCSVMHEALHNHYTQKSLSLSPGK
light: DIVMTQSPLSLPVTPGEPASISCRSSQSIVHSNGNTYLEWYLQKPGQSPQLLISKVSNRFSGVPDRFSGSGSGTDFTLKISRVEAEDVGVYYCFQGSHVPFTFGQGTKLEIKRTVAAPSVFIFPPSDEQLKSGTASVVCLLNNFYPREAKVQWKVDNALQSGNSQESVTEQDSKDSTYSLSSTLTLSKADYEKHKVYACEVTHQGLSSPVTKSFNRGEC
notes: IgG: humanized anti-Lewis Y antibody IGN311 whose CH3 domain is replaced by the CH3 of the anti-HER2 Fcab 10-03-6
Broadly, the EC50 is the concentration at which the effect is half-maximal. Read a low EC50 as greater potency. Regarding B1, the “half maximal (50%) immediate cytotoxicity (EC50), 51Cr release from SKBR3 cells” value with HER2 [1] is ~1 nM. The EC50 with HER2 [2] is ~1 nM.

B2: molecule no. 2 (IGN311/Fcab H561G3M1G4) (bispecific antibody, human IgG1, kappa)
heavy: EVQLLESGGGLVQPGGSLRLSCAASGFTFSDYYMYWVRQAPEKRLEWVAYISNGGGSSHYVDSVKGRFTISRDNAKNTLYLQMNSLRAEDTALYHCARGMDYGAWFAYWGQGTLVTVSSASTKGPSVFPLAPSSKSTSGGTAALGCLVKDYFPEPVTVSWNSGALTSGVHTFPAVLQSSGLYSLSSVVTVPSSSLGTQTYICNVNHKPSNTKVDKKVEPKSCDKTHTCPPCPAPELLGGPSVFLFPPKPKDTLMISRTPEVTCVVVDVSHEDPEVKFNWYVDGVEVHNAKTKPREEQYNSTYRVVSVLTVLHQDWLNGKEYKCKVSNKALPAPIEKTISKAKGQPREPQVYTLPPSRDEFFTYWVSLTCLVKGFYPSDIAVEWESNGQPENNYKTTPPVLDSDGSFFLYSKLTVDRRRWTAGNVFSCSVMHEALHNHYTQKSLSLSPGK
light: B1 light
notes: IgG: humanized anti-Lewis Y antibody IGN311 whose CH3 domain is replaced by the CH3 of the anti-HER2 Fcab H561G3M1G4
On to B2, for which the “half maximal (50%) immediate cytotoxicity (EC50), 51Cr release from SKBR3 cells” value with HER2 [1] was ~10 nM. Moreover, the 50% effective concentration (EC50) with HER2 [2] is ~10 nM.

The values above are taken from patent publication US20120010388A1 (published 2012).
